Molecular target: GluR2Qflip AMPA receptor (homomeric channel) (UniProt P19491-2 P19491-2:22-883)
Assay: inhibition; intrinsic KI, whole-cell current, competitive; pH 7.4, 22 C, -60 mV
Conditions: tags: expressed in HEK-293S cells (co-transfected with GFP and SV40 large T antigen); chain copies: 4
Protocol: Glutamate, a natural neurotransmitter, was used as the activating ligand, and the resulting receptor response in a single cell was recorded. Recording electrodes were made from glass capillary pipettes and fire polished. The electrode resistance was ˜3M Ω when filled with the electrode solution. The electrode solution contained 110 mM CsF, 30 mM CsCl, 4 mM MaCl, 0.5 mM CaCl₂, 5 mM EGTA, and 10 mM Hepes (pH 7.4 adjusted by CsOH). The external bath solution contained 150 mM NaCl, 3 mM KCl, 1 mM CaCl₂, 1 mM MgCl₂ and 10 mM Hepes (pH7.4 adjusted by NaOH). The GFP fluorescence in transfected cells was visualized using an Axiovert S100 microscope with a fluorescent detection system from Carl Zeiss (Thornwood, N.Y.). The whole-cell current was recorded using an Axonpatch-200B amplifier at a cutoff frequency of 2-20 kHz by a built-in eight-pole Bessel filter and digitized at 5-50 kHz sampling frequency using a Digidata 1322A from Axon Instruments (Union City, Calif.). The data acquisition software was pCLAMP 8, also from Axon Instruments.
The present invention relates to the discovery and characterization of a group of water-soluble AMPA receptor inhibitors, which are RNA aptamers that can fold into unique three-dimensional structures that confer high affinity and specificity against biological targets. […]

GluR2Qflip AMPA receptor (homomeric channel), sequence (P19491 other isoform, or with tags, fused parts or gaps): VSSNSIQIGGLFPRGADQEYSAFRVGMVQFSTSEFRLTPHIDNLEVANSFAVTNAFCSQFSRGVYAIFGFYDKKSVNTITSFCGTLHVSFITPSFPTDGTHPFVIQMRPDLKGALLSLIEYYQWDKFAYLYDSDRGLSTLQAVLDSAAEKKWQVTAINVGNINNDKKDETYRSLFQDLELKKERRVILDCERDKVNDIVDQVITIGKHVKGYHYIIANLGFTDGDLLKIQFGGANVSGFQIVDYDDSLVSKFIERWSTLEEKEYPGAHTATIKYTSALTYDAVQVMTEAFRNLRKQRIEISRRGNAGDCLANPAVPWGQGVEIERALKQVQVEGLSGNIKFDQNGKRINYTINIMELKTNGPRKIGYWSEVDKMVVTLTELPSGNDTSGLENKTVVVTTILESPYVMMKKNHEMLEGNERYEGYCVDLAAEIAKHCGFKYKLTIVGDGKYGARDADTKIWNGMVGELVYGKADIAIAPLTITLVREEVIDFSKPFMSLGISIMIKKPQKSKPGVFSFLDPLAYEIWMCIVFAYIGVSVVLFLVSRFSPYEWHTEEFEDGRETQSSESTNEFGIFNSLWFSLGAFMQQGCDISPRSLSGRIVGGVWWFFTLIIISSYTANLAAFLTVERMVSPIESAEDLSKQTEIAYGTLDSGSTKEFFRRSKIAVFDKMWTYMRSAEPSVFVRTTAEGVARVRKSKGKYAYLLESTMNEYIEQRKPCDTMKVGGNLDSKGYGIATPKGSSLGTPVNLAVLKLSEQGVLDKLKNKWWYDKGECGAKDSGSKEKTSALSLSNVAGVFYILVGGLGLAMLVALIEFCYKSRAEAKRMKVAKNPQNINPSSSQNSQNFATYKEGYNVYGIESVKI

B1: AN57 (57-nt minimal aptamer, M1+M2 mixture) (ssRNA)
RNA: GGGCGAAUUCACUGCCAUCUAGGCAGUAACCAGGAGUUAGUAGGACAAGUUUCGUCC
Ki: 133 nM
